Measured values reported in article PMC6398482.

Target: Taxol-stabilised microtubules of Rhodamine-labelled tubulin (porcine) (UniProt P02550)
Experiment: confocal microscopy of purified proteins; Taxol-stabilised MT seeds incubated with GFP–PLK4 (1 µM) for 15 min at 37°C, mounted on a slide; condensates associated with MTs counted (N=3, n=100 spots/condition)

- percent of PLK4 condensates associated with MTs: 95.4%
B1: GFP-tagged Xenopus PLK4 (wild type) (enzyme)
chain: MAGSIGERREDFKVLNLLGKGSFACVYRAQSINTGIDVAIKMIDKKAMQKVGMVQRVRNEVEIHCQLKHPSILELYNYFEDSNYVYLILEMCHNGEVNRYLKNRKKPFAEDEARHFMHQIVTGMLYLHSHGILHRDLTLSNLLLSSDMNIKIADFGLATQLKMPNEKHFTMCGTPNYIAPEIATRSAHGLESDVWSLGCMLYTFLVGRPPFDTDTVKNTLNKIVLADYEMPDFVSREAKDLIFQLLRKNPADRLSLSSVLDHAFMTGFSNVQSKVMGAVEDSMDSGHATISTGFTGSSGVSISGRFQEKRILSGPSLPNKVNIFQFKDKHPTERSNGGSFHNTQRENNDFSEGNGRKPVACEDRPHSRYLRRAHSSDRSGTSQSQTYAKPSSYSERCHSVEMLAKPTHLKGYRTSSPPNSYGDIPQMFTDERSLERHTSPPVKEKTPSEFMGPAKQTAPRSNDKAETVQQWFGAMQLNGQFKNTPDTSSVSNMGGDFYSQQATQNGAPQYAWNDVKRKKNTDSSIESVLLGIKKNPGTGQRKAEKSQFGEQSKSRVPQQAFGSSTLRSIISPLNAERLKPIRQKTKNAVVSILESGEVCMEFLKEQNSQERVKEVLRISCDGNLIYVYHPNEGKGFPLVDRPPSPPENRLSYTFDSLPEKYWKKYQYAAKFIKLVRSKTPKVTYYTRYAKCMLMENSPTADVEVCFYDGAKIHKTSDVIRVIEKSGRSYTLEGSRLSTLSDEVRSYLDHANESHCVCLSLESAINTEEKKGENISLFPITFGRRPALAESPKTQPTPSVDSARERKEEQSYVNRVLHGSAASPPQMPNLNPSLISYDGSVFSATTVQPSPTSNIHNTPDHAQVLKSVFVENVGWASQLNSGAVWVQFNDGSQLVVQPGVSSIIYTAPNGQITRHGENDKLPEYIKSKLQCLSSILMLFASSSSR
